Reference: the supplement of paper PMC9112550, “Optimization of the antimicrobial peptide Bac7 by deep mutational scanning” (BMC Biology, 2022)

System: Escherichia coli TOP10
Experiment: shrunken log2 fold change of peptide-encoding DNA abundance (4.5 h post-induction vs induction); higher = less antimicrobial activity (less host growth inhibition)
Details: time post-induction: 4.5 h; library: site-saturation at positions 5, 18, 19, 20
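Further: peptides expressed intracellularly from a pBAD plasmid library in pooled LB shake-flask culture, induced with 0.3% L-arabinose, DNA abundance read by NGS, three biological replicates, DESeq2 with apeglm shrinkage.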

Sequence | shrunken log2 fold change
RRIRFRPPRLPRPRPRPLAYPRP | -0.534
RRIRFRPPRLPRPRPRPLCCPRP | -0.205
RRIRFRPPRLPRPRPRPLDAPRP | 0.0999
RRIRFRPPRLPRPRPRPLFVPRP | -0.424
RRIRFRPPRLPRPRPRPLIGPRP | -0.106
RRIRFRPPRLPRPRPRPLIIPRP | -0.575
RRIRFRPPRLPRPRPRPLLCPRP | -0.105
RRIRFRPPRLPRPRPRPLPMPRP | 0.142
RRIRFRPPRLPRPRPRPLRWPRP | 0.59
RRIRFRPPRLPRPRPRPLSHPRP | -0.512
RRIRFRPPRLPRPRPRPLSLPRP | -0.0575
RRIRFRPPRLPRPRPRPLSRPRP | -0.102
RRIRFRPPRLPRPRPRPLTDPRP | -0.143
RRIRFRPPRLPRPRPRPLTHPRP | -0.0881
RRIRFRPPRLPRPRPRPLTMPRP | -0.396
RRIRFRPPRLPRPRPRPLTSPRP | -0.0399
RRIRFRPPRLPRPRPRPLVKPRP | -0.143
RRIRFRPPRLPRPRPRPLWCPRP | -0.0894
RRIRFRPPRLPRPRPRPLWWPRP | 0.172
RRIRFRPPRLPRPRPRPLYAPRP | -0.119
RRIRFRPPRLPRPRPRPLYFPRP | -0.72
RRIRFRPPRLPRPRPRPMAGPRP | -0.111
RRIRFRPPRLPRPRPRPMAWPRP | -0.0344
RRIRFRPPRLPRPRPRPMCIPRP | -0.075
RRIRFRPPRLPRPRPRPMDTPRP | -0.165

Sequence | shrunken log2 fold change
RRIRFRPPRLPRPRPRPMEEPRP | 0.279
RRIRFRPPRLPRPRPRPMEKPRP | 0.273
RRIRFRPPRLPRPRPRPMKTPRP | -0.0807
RRIRFRPPRLPRPRPRPMLLPRP | -0.128
RRIRFRPPRLPRPRPRPMMHPRP | -0.181
RRIRFRPPRLPRPRPRPMMIPRP | -0.018
RRIRFRPPRLPRPRPRPMNGPRP | -0.0885
RRIRFRPPRLPRPRPRPMQHPRP | 0.0148
RRIRFRPPRLPRPRPRPMQVPRP | -0.228
RRIRFRPPRLPRPRPRPMRCPRP | 0.0196
RRIRFRPPRLPRPRPRPMRKPRP | 0.222
RRIRFRPPRLPRPRPRPMWSPRP | -0.227
RRIRFRPPRLPRPRPRPMYCPRP | -0.541
RRIRFRPPRLPRPRPRPMYDPRP | -0.244
RRIRFRPPRLPRPRPRPMYYPRP | -0.123
RRIRFRPPRLPRPRPRPNADPRP | -0.055
RRIRFRPPRLPRPRPRPNCGPRP | -0.0249
RRIRFRPPRLPRPRPRPNDCPRP | -0.415
RRIRFRPPRLPRPRPRPNDEPRP | -0.648
RRIRFRPPRLPRPRPRPNDKPRP | -0.32
RRIRFRPPRLPRPRPRPNENPRP | 0.00257
RRIRFRPPRLPRPRPRPNEVPRP | -0.0205
RRIRFRPPRLPRPRPRPNFYPRP | -0.212
RRIRFRPPRLPRPRPRPNGCPRP | -0.0256
RRIRFRPPRLPRPRPRPNHYPRP | -0.62

Sequence | shrunken log2 fold change
RRIRFRPPRLPRPRPRPNKKPRP | -0.212
RRIRFRPPRLPRPRPRPNKLPRP | -0.615
RRIRFRPPRLPRPRPRPNLDPRP | -0.18
RRIRFRPPRLPRPRPRPNLFPRP | -0.0917
RRIRFRPPRLPRPRPRPNMSPRP | -0.54
RRIRFRPPRLPRPRPRPNPHPRP | -0.428
RRIRFRPPRLPRPRPRPNPLPRP | 0.0861
RRIRFRPPRLPRPRPRPNRCPRP | -0.717
RRIRFRPPRLPRPRPRPNTEPRP | -0.479
RRIRFRPPRLPRPRPRPNTHPRP | -0.579
RRIRFRPPRLPRPRPRPNTIPRP | -0.409
RRIRFRPPRLPRPRPRPNWGPRP | 0.0529
RRIRFRPPRLPRPRPRPNYEPRP | -0.774
RRIRFRPPRLPRPRPRPNYFPRP | -0.383
RRIRFRPPRLPRPRPRPNYLPRP | -0.381
RRIRFRPPRLPRPRPRPNYQPRP | -0.467
RRIRFRPPRLPRPRPRPPAFPRP | 0.112
RRIRFRPPRLPRPRPRPPAHPRP | 0.613
RRIRFRPPRLPRPRPRPPDLPRP | -0.329
RRIRFRPPRLPRPRPRPPGEPRP | 0.421
RRIRFRPPRLPRPRPRPPGMPRP | 0.461
RRIRFRPPRLPRPRPRPPKCPRP | 0.0793
RRIRFRPPRLPRPRPRPPKQPRP | 0.226
RRIRFRPPRLPRPRPRPPKSPRP | 0.234
RRIRFRPPRLPRPRPRPPKVPRP | 0.0991
